Laboratory results: patent US20260098095A1 (Hoffmann-La Roche, published 2026)

What was measured:
[1] = target: T1, HLA-A2/MAGE-A4 peptide MHC (pMHC) complex on cells (human); assay: cell-based or functional assay
[2] = target: T1, HLA-A2/MAGE-A4 peptide MHC (pMHC) …; assay: cell-based or functional assay; remark: listed apart in the source
[3] = target: T2, HLA-A2/MAGE-A4p230-239 complex (human); assay: SPR Biacore T200, antibody captured by anti-human Fc, pMHC complex as analyte, 25 C, 1:1 Langmuir fit
T2 construct: also called HLA-A2/MAGEp230-239
Procedure: The dissociation phase was monitored for 240 s and triggered by switching from the sample solution to HBS-EP+. The chip surface was regenerated after every cycle using an injection of 3M MgCl₂ at 10 μl/min for 30 sec. Bulk refractive index differences were corrected for by subtracting the response obtained on the reference flow cell which contains the anti-human Fc antibody, but without HLA-A2/MAGE-A4 antibody captured on it. The affinity constants were derived from the kinetic rate constants by fitting to a 1:1 Langmuir binding using the BIAeval software (GE Healthcare). The measurement was performed in triplicate with independent dilution series.

[4] = target: T1, HLA-A2/MAGE-A4 peptide MHC (pMHC) …; assay: cell-based or functional assay; remark: listed apart in the source
[5] = target: T1, HLA-A2/MAGE-A4 peptide MHC (pMHC) …; assay: cell-based or functional assay; remark: listed apart in the source
[6] = target: T1, HLA-A2/MAGE-A4 peptide MHC (pMHC) …; assay: cell-based or functional assay; remark: listed apart in the source
CCS = CCS (human); assay: cell-based or functional assay
[7] = target: HLA-A2 with peptide MAGB6 on T2 cells (human); assay: cell-based or functional assay
SLC45A1 = SLC45A1 (human); assay: cell-based or functional assay
ARF1 = ARF1 (human); assay: cell-based or functional assay
gutQ = gutQ (human); assay: cell-based or functional assay
PIGG = PIGG (human); assay: cell-based or functional assay
DPYSL3 = DPYSL3 (human); assay: cell-based or functional assay
UNC80 = UNC80 (human); assay: cell-based or functional assay
KDM1A = KDM1A (human); assay: cell-based or functional assay
[8] = target: HLA-A2 with peptide MAGA10 on T2 cells (human); assay: cell-based or functional assay
KEAP1 = KEAP1 (human); assay: cell-based or functional assay
BNRF1 = BNRF1 (human); assay: cell-based or functional assay
DPYSL4 = DPYSL4 (human); assay: cell-based or functional assay
VPS13D = VPS13D (human); assay: cell-based or functional assay
URB1 = URB1 (human); assay: cell-based or functional assay
MTOR = MTOR (human); assay: cell-based or functional assay
pfkA = pfkA (human); assay: cell-based or functional assay
PKP1 = PKP1 (human); assay: cell-based or functional assay
GAPDHS = GAPDHS (human); assay: cell-based or functional assay
ARF3 = ARF3 (human); assay: cell-based or functional assay
DYNC1H1 = DYNC1H1 (human); assay: cell-based or functional assay
MAGEB2 = MAGEB2 (human); assay: cell-based or functional assay
UBE2V2 = UBE2V2 (human); assay: cell-based or functional assay
FBXO34 = FBXO34 (human); assay: cell-based or functional assay
CRMP1 = CRMP1 (human); assay: cell-based or functional assay
EDC3 = EDC3 (human); assay: cell-based or functional assay
T9A = T9A (human); assay: cell-based or functional assay
Y3A = Y3A (human); assay: cell-based or functional assay
D4A = D4A (human); assay: cell-based or functional assay
H8A = H8A (human); assay: cell-based or functional assay
V2A = V2A (human); assay: cell-based or functional assay
G1A = G1A (human); assay: cell-based or functional assay
[9] = target: T1, HLA-A2/MAGE-A4 peptide MHC (pMHC) …; assay: cell-based or functional assay; remark: listed apart in the source
E7A = E7A (human); assay: cell-based or functional assay
G5A = G5A (human); assay: cell-based or functional assay
R6A = R6A (human); assay: cell-based or functional assay
V10A = V10A (human); assay: cell-based or functional assay

B1: Molecule R (bispecific antibody, human IgG1, kappa, L234A L235A)
heavy 1: not shown
heavy 2: AQLVESGGGLVQPGGSLRLSCAASAYFSFKAMSWVRQAPGKGLEWVGSISPSGGSTYYNDNVLGRFTISRDNSKNTLYLQMNSLRAEDTAVYYCAKDVGFFDEWGQGTLVTVSSASTKGPSVFPLAPSSKSTSGGTAALGCLVEDYFPEPVTVSWNSGALTSGVHTFPAVLQSSGLYSLSSVVTVPSSSLGTQTYICNVNHKPSNTKVDEKVEPKSCDKTHTCPPCPAPEAAGGPSVFLFPPKPKDTLMISRTPEVTCVVVDVSHEDPEVKFNWYVDGVEVHNAKTKPREEQYNSTYRVVSVLTVLHQDWLNGKEYKCKVSNKALGAPIEKTISKAKGQPREPQVCTLPPSRDELTKNQVSLSCAVKGFYPSDIAVEWESNGQPENNYKTTPPVLDSDGSFFLVSKLTVDKSRWQQGNVFSCSVMHEALHNHYTQKSLSLSP
light 1: DIQMTQSPSSLSASVGDRVTITCRASQSISSYLAWYQQKPGKAPKLLIYDASIRDIGVPSRFSGSGSGTDFTLTISSLQPEDFATYYCQQYSSYPYTFGQGTKLEIKRTVAAPSVFIFPPSDRKLKSGTASVVCLLNNFYPREAKVQWKVDNALQSGNSQESVTEQDSKDSTYSLSSTLTLSKADYEKHKVYACEVTHQGLSSPVTKSFNRGEC
light 2: EVQLVESGGGLVQPGGSLRLSCAASGYSFTGYTMNWVRQAPGKGLEWVALINPYKGVSTYNQKFKDRFTISVDKSKNTAYLQMNSLRAEDTAVYYCARSGYYGDSDWYFDVWGQGTLVTVSSASVAAPSVFIFPPSDEQLKSGTASVVCLLNNFYPREAKVQWKVDNALQSGNSQESVTEQDSKDSTYSLSSTLTLSKADYEKHKVYACEVTHQGLSSPVTKSFNRGEC
- EC50 [pM], T-cell mediated lysis of A375 HLA-A2 overexpressing cells, 24 h [1]: 0.08 pM
- EC50 [pM], T-cell mediated lysis of A375 cells, 24 h [1]: 0.6 pM
- EC50 (nM), T-cell mediated lysis of A375 cells, 48 h [2]: 1.47 nM
- EC50 (nM), T-cell mediated lysis of NCI-H2023 cells, 48 h [2]: 1.06 nM
- EC50 (nM), T-cell mediated lysis of UMUC-3 cells, 48 h [2]: 0.57 nM
- Kd [3]: 13.1 nM
- koff [3]: 0.0436 s⁻¹
- kon [3]: 3.33e+06 M⁻¹ s⁻¹

B2: Molecule B (bispecific antibody, V domains shown)
VH 1: YPQLVESGGGLVKPGGSLRLSCAARYPFTRLDMSWVRQAPGKGLEWVGSISPKGGSTYYNDNVLGRFTISRDNSKNTLYLQMNSLRAEDTAVYYCARDWGFFDNWGQGTLVTVSS
VL 1: AIQMTQSPSSLSASVGDRVTITCRASQSISNYLAWYQQKPGKAPKLLIYNASHPEYDVPSRFSGSGSGTDFTLTISSLQPEDFATYYCQQYSSHPYTFGQGTKLEIK
VH 2: not shown
VL 2: QAVVTQEPSLTVSPGGTVTLTCGSSTGAVTTSNYANWVQEKPGQAFRGLIGGTNKRAPGTPARFSGSLLGGKAALTLSGAQPEDEAEYYCALWYSNLWVFGGGTKLTVL
- EC50 [pM] 24 h, T-cell mediated lysis of MAGE-A4 peptide pulsed T2 cells [4]: 72.8 pM
- EC50 [pM], T-cell mediated lysis of IM-9 cells, 24 h [5]: 1080 pM
- EC50 [pM], T-cell mediated lysis of NCI-H1755 cells, 24 h [5]: 168 pM
- EC50 [pM], activation of Jurkat-NFAT reporter cells (luminescence, 6 h) with MAGE-A4 peptide pulsed T2 cells [6]: ~8310 pM
- % of MAGE-A4 signal, Jurkat-NFAT; grey (>2%) (CCS): 10.8%
- % of MAGE-A4 signal, Jurkat-NFAT; grey (>2%) [7]: 57.9%
- % of MAGE-A4 signal, Jurkat-NFAT (SLC45A1): 1.22%
- % of MAGE-A4 signal, Jurkat-NFAT (ARF1): 1.14%
- % of MAGE-A4 signal, Jurkat-NFAT (gutQ): 1.11%
- % of MAGE-A4 signal, Jurkat-NFAT (PIGG): 1.46%
- % of MAGE-A4 signal, Jurkat-NFAT; grey (>2%) (DPYSL3): 112%
- % of MAGE-A4 signal, Jurkat-NFAT (UNC80): 0.98%
- % of MAGE-A4 signal, Jurkat-NFAT (KDM1A): 1.04%
- % of MAGE-A4 signal, Jurkat-NFAT; grey (>2%) [8]: 10.6%
- % of MAGE-A4 signal, Jurkat-NFAT (KEAP1): 1.07%
- % of MAGE-A4 signal, Jurkat-NFAT (BNRF1): 1.05%
- % of MAGE-A4 signal, Jurkat-NFAT; grey (>2%) (DPYSL4): 53.1%
- % of MAGE-A4 signal, Jurkat-NFAT (VPS13D): 1.8%
- % of MAGE-A4 signal, Jurkat-NFAT; grey (>2%) (URB1): 67.9%
- % of MAGE-A4 signal, Jurkat-NFAT (MTOR): 0.59%
- % of MAGE-A4 signal, Jurkat-NFAT (pfkA): 1.1%
- % of MAGE-A4 signal, Jurkat-NFAT (PKP1): 0.94%
- % of MAGE-A4 signal, Jurkat-NFAT (GAPDHS): 1.37%
- % of MAGE-A4 signal, Jurkat-NFAT (ARF3): 1.59%
- % of MAGE-A4 signal, Jurkat-NFAT (DYNC1H1): 0.85%
- % of MAGE-A4 signal, Jurkat-NFAT (MAGEB2): 1.58%
- % of MAGE-A4 signal, Jurkat-NFAT (UBE2V2): 1.37%
- % of MAGE-A4 signal, Jurkat-NFAT (FBXO34): 0.91%
- % of MAGE-A4 signal, Jurkat-NFAT; grey (>2%) (CRMP1): 67.5%
- % of MAGE-A4 signal, Jurkat-NFAT (EDC3): 0.63%
- EC50, Jurkat-NFAT activation (T9A): 0.426 nM
- EC50, Jurkat-NFAT activation (Y3A): 27.9 nM
- EC50, Jurkat-NFAT activation (D4A): 191 nM
- EC50, Jurkat-NFAT activation (H8A): 0.717 nM
- EC50, Jurkat-NFAT activation (V2A): 0.258 nM
- EC50, Jurkat-NFAT activation (G1A): 141 nM
- EC50, Jurkat-NFAT activation [9]: 0.189 nM
- EC50, Jurkat-NFAT activation (E7A): 3.48 nM
- EC50, Jurkat-NFAT activation (G5A): 0.181 nM
- EC50, Jurkat-NFAT activation (R6A): 45.5 nM
- EC50, Jurkat-NFAT activation (V10A): 1.01 nM
